Test results from the nanobody polyreactivity screen of Harvey et al. (2022).

Test: yeast display, Sf9 membrane polyspecificity reagent, FACS + sequencing; frameworks hold sequencing errors
Method in brief: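 After 36–48 hours of galactose induction, yeast (Saccharomyces cerevisiae BJ5465) displaying a synthetic nanobody library were stained at 4 °C for 1 hour with 10% biotinylated, detergent-solubilized Sf9 membrane reagent. Streptavidin microbeads enriched the stained cells before FACS sorting into low and high (top ~1%) gates on anti-HA and streptavidin fluorescence. Each clone's polyreactivity label reflects its gate of origin.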

Row | Sequence | polyreactivity (PSR sort gate)
1 | QVQLVESGGGLGQAGGSLRLSCAASGSIFSAYAMGWYRPAPGKERELVAGISKRGGSTYYADSVKGRFTISRDNAKNTVYLQMNSLKAEDTAVYYCTAARYTVVTKLFDYWGQGTQVTVSS | high polyreactivity
2 | PVQLVESGGGLVQAGGSLLLSCAASGRIFSRNAMGWNIQAPGKERELVAAISRSGTSTYYADSVKGRFTSSRDNAKNTVYLQMNSLKPEETAVYYCAADYPAVISIRRYDYWGQGTQLTVSS | low polyreactivity
3 | QVQLVESGGGLVQAGGSLRLSCAASGFIFSQYTMGWYRQAPGKERELVAAISFSDSSTFYADSVKGRFTISRDNAKNTVYLQMNSLKPEDTAVYYCAAEWGYRQRYFYATGGYWGQGTQVTVSS | low polyreactivity
4 | QVQLVESGGGLVQAGGSLRLSCAASGRIFLSYAMGVYRQAPGKERELVAGITGTGGRTYYADSVKGRFTISRDNAKNTVYLLMNSLIPEDTAVSYCAAQRRDNIDPKHYYWGQGTQVTVSS | low polyreactivity
5 | QVQLVESGGGLVQAGGSLRLSCAASGRTFADYAMGWYRQAPGKERELVATIRKSTGTTYYADSVKGRFTISRDNAKNTVYLQMNSLKPEDTAVYYCAAARSRYSRWRVEYWGQGTQVTVSS | high polyreactivity
6 | QVQRVESGGGLVQAGGSLRLSCAATGFTFSWYVMGWYRQAPGKERELVATITNRGGSTYYSDSVKGRFTISRDNAKNTVYLQMNSLKPEDPAVYYCAARKKGSRVGFDYWGQGTQVTVSS | high polyreactivity
7 | QVQLVESGGGLVQAGGSLRLSCAASGSTFLRYAMGWYRQAPGKERELVAAITASGGSTYYADSVKGRFTISRDNAKNTVYLEMNSLKPEDTAVYYCAADGRYIGKNSHDLWIYGYYYWGQGTQVTVSS | low polyreactivity
8 | QVQLVESGGGLVQAGGSLRLSCAASGFTFPYYAMGWYRQAPGKERELVAAISKSGGSTYFADSVKGRFTISRDNAKNTVYLQMNSLKPEDTAVYYCAAQGGSKYRGYYYWGQGTQVTVSS | high polyreactivity
9 | QVQLVESGGGLVQAGGSLRLSCAASGRIFGYYAMGWYRQAPGKERELVASITNGASTNYADSVKGRFTISRDNAKNTVYLQMNSLKPEDTAVYYWNARRGSRRFGYWGQGTQVTVSS | high polyreactivity
10 | QVQLVESGGGLVQAGGSLRLSCAASGLTFSAYAMGWYRQAPGKERELVAAITSSGGSTYADSVKGRFTISRDNAKNTVYLQMNSLKPEDTAVYYCAARVVRYGYKYYYWGQGTQVTVSS | low polyreactivity
11 | QVQLLESGGGLVQAGGTLRLSCAASGYTFAWYAMVWSRQAPGKERELVAAINNGGSTSYADSVKGRFTISRDNAKNTVYLQMNSLKREDTAVYYCAARPGAHPDRLDYWGQGTQVTVSS | low polyreactivity
12 | QVQLVESGGGLVQAGGSLRLSCAASGRTFNGYAMGWYRQAPGKERELVASISWSGGRTYYADSVKGRFTISRDNAKNTVYLQMNSLIPEDTAVYYCNAYYYRVPRPWFDYWGQGTQVTVSS | high polyreactivity
13 | QVQLVDSGGGLVQAGGSLRLSCASSGFIFQYNTMGWSRQAPGKERELVAVITRTGSTNYADSVKGRFTISRDNANNTVYLQMNSLKPEDTAVYYCATSVYSRPRKPRYYYWGQGTQLTVSS | high polyreactivity
14 | QGQLVESGGGLVQAGGSLRITCAASGITFPYNAMGWYRQAPGTERELVAAITRSGASTYYADSVKGRFTISRDNSKNTVYVQMNSLKPEDTAVYYCAAKVIGRPRPYYYWGQGTQVTVSS | high polyreactivity
15 | QVQLVESGGGLVQAGGSLRLSCAASGRSFPWYGMGWYRQAPGKERELVAAISRTGGNTYYADSVKGRFTISRDNAKNTVYLQMNSLKPEDTAVYYCIAGYYSNRSYFYDYGYWGQGTQVTVSS | high polyreactivity
16 | QVQLVESGGGLVQAGGSLRLSCAASGLTFGRYTMGWYRQAPGKERELVAAISYSGGSTYYADSVKGRFTISRDNAKNTVYLQMNSLKPEDTAVYYCAKRWTGLGGYYYWGQGTQVTVSS | high polyreactivity
17 | QVQLVESGGGLVQAGGSLRLSCAASGSIFWYYAMGWYRQAPGKERELVADITIRGGRTYYADSVKGRFTISRDNAKNTVYLQMNSLKPEDTAVYYCAADWEYWGFGLYDYWGQGTQVTVSS | low polyreactivity
18 | QVQLVESGGGLVQAGGSLRLSCAASGSILFYAMVWYRQAPGKERELVAAITWRGGSTYYADSVKGRFTISRDNAKNSVYLQMNSLKPEDTAVYYCARDETGRIEGDYWGQGTQVTVSS | high polyreactivity
19 | PVQLVESGGGLVQAGGSLRLSCAASGSTFAYNDLGWYRQAPGKERELVADIRSGGNTNYADSVKGRFTISRDNAKNTVYLQMNSLKPEDTAVYYCATDGYRIDVFHPDYRYDYWGQGTQETVSS | low polyreactivity
20 | QVQLVESGGGLVQAGGSLRLSCAASGIILYRNGMGWYRQAPGKERELVAVISRRGGTYYADSVKGRFTISRDNAKITVYLQLNSLKPEDTAVYYCAAYLSPIGNFRGGGDYWGQGTQVTVSS | high polyreactivity
21 | QVQLVESGGGLVQAGGSLRLSCAASGITFEIYAMGWYRQAPGKERELVAAITWRGGSTYYADSVKGRFTISRDNAKNTVYLQMNSLKPDDTAVYYCAAEQYSGEDWGDYWGQGTQVTVSS | low polyreactivity
22 | QVQLVESGGGLVQAGGSLRLSCAASGSTFSRNAMGWSRQAPGKERELVAAISRRGGTTNYADSVKGRFTISRDNAKNTVYLQMNSLKPEDTAVYYCNAQPGDYWGQGTQVTVSS | high polyreactivity

Row | Sequence | polyreactivity (PSR sort gate)
23 | QVQLVESGGGLVQAGGSLRLSCAASGRTFYRNAMGWYRQAPGKERELVAAITWSGVSTYYADSVKGRFTISRDNAKNTVYVQMNSQKPEDTAVYYCARGRVLRNGHYFQLRNYDYWGQGTQVTVSS | high polyreactivity
24 | QVQLVESVGGLVQAGGSLRLSCAASGNTFYAYAMGWYRQAPGKERELVAAIRKSGGNTYYADSVKGRFTISRYNAKNNVYLQMYSLKPEDTAVYYCAARYRGYAFLNYDYWGQGTQVTVSS | low polyreactivity
25 | QVQLVESGGGLVQAGGSLRLSCAASGRNFCVYAMGWYRHDHGKERELVAAISYDDGDTFYADSVKGRFTISRDNAKNTVYLQMNSLKPDDTAVYYCDAEGYSYIQSDLDYCGQGTQVTVSS | high polyreactivity
26 | QVQLVESGGGLVQAGGRLRLSCAASGITFYVYAMGWYRQAPGKVREFVAAISTRDGTTYADSVKGRFTISRDNAKNTVYLQMNRLKPEDTAVYFCAAAYYYDGQQGDFDYWGQGTQVTVSS | low polyreactivity
27 | QVQLVESGGGLVQAGGSLRLSCAASGSTFVRYAMGWYRQAPGKERELVAAISGSGGRTYYADSVKGRFTISRDNAKNTVYLQMYSLKPEDTAVYYCATSTAGGRQTVSQYRYYWGQGTQVTVSS | high polyreactivity
28 | QVQLVESGGGLVQAGGSLRLSCAASGRTLTGNAMGWYRPAPGKERELVAVISYSGTNTRYADSVKGRFTISRDNAKNTVYLQMNSLKPEDTAVYYCAADWLGISVVRDPFDHWGQGTQVTVSS | high polyreactivity
29 | QVQRVESGGGLVQAGGSLRLSCDASGFTFAFYAMGWYRQAPGKERELVAAITGSGGSTYYADSVKGRFTISRDNAKNTVYLQMNRLKPEDTAVYYCNTYHQFSYDYWGQGTQVTVSS | high polyreactivity
30 | QVQLVESGGGLVQAGGSHRLSCAASGRIFSTYAMGWYRQAPGKERELVAAINKIGGSTYYADSVKGRFTISRDNAKNNVYLQMNSLKPEDTAVDYCAADAPHYPVRRYYYWGQGTQVTVSS | low polyreactivity
31 | QGQLVESGGGLVQAGGRLRLSCAATGLTFAKNAMGWYRQAPGKEREMFAAIRSGDDTTYADSVKGRFTISRDNAKNTVYLQMNSLKPEDSAEYYCAARYYRTWDGRFGYWGQGTQVTVSS | high polyreactivity
32 | QVQLVQSGGGLVQAGGSLSLSCAASVFIFYYYDMGWYIQAPGKERELVAAISGRDGSTYYADSVKGRFTISRDNAKNTVYLQMNSLKPEDTAVYYCAAANRSRSIGSQYGYWGQGTQVTVSS | high polyreactivity
33 | QVQLVESGGGLVQAGGSLRLSCAASGSTLLGYTMGWYRQAPGKERELVAVISWSGGGTYYADSVKGRFTISRDNAKNTVYLQMNSLKPEDTAVYYCAAETVLGYWYYRKYYYWGQGTQVTVSS | high polyreactivity
34 | QVQLVESGGGSVQAGGSLRLSCAASGSTFQTNAMGWYRQAPGKERELVAAISRTGGRTYYADSVKGRFTISRDNAKNTVYLQMNSLKPEDTAVYYCAASAWIRYNNRDGYGYWGQGTQVTVSS | high polyreactivity
35 | QVQLVESGGGLVQAGGSLRLSCAASGSILRQYAMGWYRQAPGKERELVATITGDGSTNYADSVKGRFTISRDNAKNTVYLQMNSLKPEDTAVYYCNTALTYPYPNVEDLVYGFKLDYWGQGTQVTVSS | low polyreactivity
36 | QVQLVESGGGLVQAGCSLRLSCAASGSIFYRNPMVWYRQAPGKERELVAAISSDGSTNYADSVKGRFTISRDNAKNTVYLQMNSLKPEDTAVYYCAAPWTQILDYWGQGTQVTVSS | low polyreactivity
37 | QVQLVESGGGLVQAGGSLRLSCAASGITFRLYAMGWNRQAPGKERELVAAITGSGGRTYYADSVKGRFTISRDNAKNTVYLHMNSLKPEDTAVYYCAADWRHLRYRGGLKYDYWGQGTQVTFSS | high polyreactivity
38 | QVQLVESGGGLVQAGGSLRLSCAASGRIFYSYTMGWYRQAPGKERELVAGINRSVGSTYYADSVKGRFTISRDNAKNTVYLQMNSLKPEDTAVYYCAAGSRRRSYYTFSSVHGHYYWGQGTQVTVSS | high polyreactivity
39 | QVQLVESGGGLVQAGGSLRLSCAASGSTFYYNAMGWYRQAPGKERELVAAISGSGGSTYYADSVKGRFTISRDNAKNTVYLQMNSLKPEDTAVDYCAALYGPGREYDYWGQGTQVTVSS | low polyreactivity
40 | QVQLVESGGGLVQAGGSLRLSCAASGITFPWYAMGWYIQAPGKERELVAAISFSGGSTYYADSVKWRFTISRDNAKNTVYLQMNCLKPVDTAVYYCAAVDGYSYIYAAGDYWGQGTQVTVSS | low polyreactivity
41 | QVQLVESGGGLVQAGGSLRLICASSGRIFAGYAMGWYRQAPGKERELVAAIRDSGRTYYAVSVKGRFTISRDNAKNTVYLQMNSLKPEVTAVSYCAADAHSSYSPFRWYDYWGQGTQVTVSS | low polyreactivity
42 | QVQLVESGGGLVQAGGSLRLSCAASGSIFVGNAMGWYRQAPGKQRELVATISWSGGSTYYADSVKGRFTISRDNAKNTVYLQMNSVKPEDTAVYYCNAVYVSSFTGHDYWGQGTQVTVSS | low polyreactivity
43 | QVQLVESGGGLVQAGGSLRLSCAASGRIFYNYAMGWYRQAPGKERELVAAISGSGGSTYYADSVKGRFTISRDNAKNSVYLQMNSLKPEDTAVYYCSTSGPQYYSRNFDYWGQGTQVTVSS | low polyreactivity
